# Assay results reported in patent publication US20060051772A1 (LUDWIG INSTITUTE FOR CANCER RESEARCH, published 2006).
# Biological target: HLA-DR molecule DRB1*0301 (human)
# Assay: cell-based or functional assay
binder,measurement,value
WEKMKSSEKIVYVYM [peptide SSX-4 37-51],"peptide titration assay: recognition by SSX-4 31-50 reactive CD4+ T cells from LAU 331, efficiency against peptide SSX-4 31-50",3 fold
